# According to patent publication US20090291083A1, “BARB4 TARGET, ANTIBODY DESIGNATED BARB4, BARB4 RELATED ANTIBODIES, AND METHODS OF MAKING AND USING SAME” (PATRYS LIMITED, priority 2008, published 2009):
# B1: BARB4: human IgG antibody produced by hybridoma DSMZ Deposit No. DSM ACC2876; heavy chain SEQ ID NOs:1, 3, 5, 7, light chain SEQ ID NO:9 (antibody, V domains shown)
# VH: QVQLVESGGGVVQPGRSLRLSCAASGFRFTTHGMHWVRQAPGKGLEWVAVISYNGRNKYYADYVNGRFTISRDDSRDTVFLQMNSLRPEDTAMYYCAKVRGDGYGDYGYFDYWGHGTLVSVSS
# VL: QSALTQPRSVSGSPGQSVTISCTGTYNYVSWYQQHPGKAPKLMIFDVSRRSSGVPDRFSGSKSGNTASLTISGLQAEDEADYYCCSYGGTYLYVFGTGTTVTVLGQ
# Tested on: BXPC-3 cells transfected with TAF 15 siRNA
# Test: FACS analysis after TAF 15 siRNA knockdown
# Type: binding, human
# Details: BARB4 300 μg/ml
# Experimental: Before transfection, 24-well plates were inoculated with 0.5×10^4 BXPC-3 cells in growth medium (RPMI 1640 supplemented with […] and 1% (V/V) glutamine). The cells were incubated at 37° C. and a 7% CO2 atmosphere over night to reach a confluence of 50 to 70% the following day. 60 minutes prior to transfection, the medium was carefully aspirated from the wells and 250 μl (300 μl for nontransfected cells) fresh growth medium was added. For each well 50 μl transfection solution was prepared. First […] serum-free OptiMEM® I+GlutaMAX™-I (1×) medium (Invitrogen, Karlsruhe) supplemented with 0.5 μl siLentFect™Lipid Reagent (Biorad, München) was mixed. Afterwards 25 μl serum-free medium containing siGENOME SMARTpool siRNA (Dharmacon, Lafayette, USA) was prepared to achieve a final concentration of 100 nM siRNA. Both solutions were prepared separately. After five minutes they were added together and mixed by pipetting. […]
# FACS assays were done with transfected cells. […] At least 200 μl FACS buffer was added and cells were analyzed by flow cytometry (FACScan; Becton Dickinson, San Jose, Calif.) using WinMDI software. […]
# Mouse anti-human CD55 antibody (DAF; 1:1000; Acris, Hiddenhausen) was used to control protein expression of other cell surface membrane proteins. […] The cells were analyzed by flow cytometry (FACScan, Becton Dickinson, San Jose) and evaluated with WinMDI software.
molecule,measurement,setting,value
B1,FACS binding to cells treated with siRNA against human TAF15 mRNA,48 h after transfection,clearly reduced binding
same,FACS binding to untreated cells and cells treated with unrelated siRNA (negative control),after 48 h,binds
